In patent US20220025003A1, “REAGENTS AND METHODS FOR CONTROLLING PROTEIN FUNCTION AND INTERACTION” (University of Washington, priority 2018, published 2022):
Ends that are not written are not given here.

Assays:
[1] = target: NS3aH1-VPR, cells treated with danoprevir (hepatitis C virus); experiment: cell-based or functional assay
[2] = target: NS3a (active), Avi-His6-NS3a catalytically active; experiment: fluorescence polarization; FB50; conditions: chains peptide; modification not given
[3] = target: NS3a (active), Avi-His6-NS3a catalytically active; experiment: fluorescence polarization; FB50; conditions: chains peptide; modification not given; remark: listed apart in the source
[4] = target: NS3aH1-VPR, cells treated with grazoprevir (hepatitis C virus); experiment: cell-based or functional assay

B1: NLS-PCP-DNCR2 (from NLS-PCP-DNCR2-P2a-BFP) (designed binder)
chain: MPKKKRKVGSMSKTIVLSVGEATRTLTEIQSTADRQIFEEKVGPLVGRLRLTASLRQNGAKTAYRVNLKLDQADVVDSGLPKVRYTQVWSHDVTIVANSTEASRKSLYDLTKSLVATSQVEDLVVNLVPLGRGSGSGSSDEEEARELIERAKEAAERAQEAAERTGDPRVRELARELKRLAQEAAEEVKRDPSSSDVNEALKLIVEAIEAAVDALEAAERTGDPEVRELARELVRLAVEAAEEVQRNPSSSDVNEALHSIVYAIEAAIFALEAAERTGDPEVRELARELVRLAVEAAEEVQRNPSSRNVEHALMRIVLAIYLAEENLREAEESGDPEKREKARERVREAVERAEEVQRDPSGWLNHEQKLISEEDLGSGATNFSLLKQAGDVEENPG
Question: Which EC50 of the danoprevir titration, GFP fluorescence [1] does the source give for B1 here?
Answer: 0.79 nM

Question: What does the source list for GSGSGELDELVYLLDGPGYDPIHSD (not fully specified (N-terminus)) [FAM-ANR]?
Answer: EC50 [2]: 30 nM; EC50 [3]: 40 nM

B2: NLS-MCP-GNCR1 (from NLS-MCP-GNCR1-P2a-BFP) (designed binder)
chain: MPKKKRKVGSMASNFTQFVLVDNGGTGDVTVAPSNFANGIAEWISSNSRSQAYKVTCSVRQSSAQNRKYTIKVEVPKGAWRSYLNMELTIPIFATNSDCELIVKAMQGLLKDGNPIPSAIAANSGIYGSGGSGDIEKLCKKAEEEAKEAQEKADELRQRHPDSQAAEDAEDLANLAVAAVLTACLLAQEHPNADIAKLCIKAASEAAEAASKAAELAQRHPDSQAARDAIKLASQAARAVILAIMLAAENPNADIAKLCIKAASEAAEAASKAAELAQRHPDSQAARDAIKLASQAAEAVERAIWLAAENPNADIAKKCIKAASEAAEEASKAAEEAQRHPDSQKARDEIKEASQKAEEVKERCKSEQKLISEEDLGSGATNFSLLKQAGDVEENPG
Question: With B2 as the binder, how does the EC50 of the grazoprevir titration, CXCR4 immunofluorescence [4] read?
Answer: 0.16 nM
